In IntAct's records for PubMed 17681130:

B1: Protein BRASSINAZOLE-RESISTANT 1 (Arabidopsis thaliana (Mouse-ear cress)), Q8S307 (parent)
chain: MTSDGATSTSAAAAAAAAAAARRKPSWRERENNRRRERRRRAVAAKIYTGLRAQGDYNLPKHCDNNEVLKALCVEAGWVVEEDGTTYRKGCKPLPGEIAGTSSRVTPYSSQNQSPLSSAFQSPIPSYQVSPSSSSFPSPSRGEPNNNMSSTFFPFLRNGGIPSSLPSLRISNSCPVTPPVSSPTSKNPKPLPNWESIAKQSMAIAKQSMASFNYPFYAVSAPASPTHRHQFHTPATIPECDESDSSTVDSGHWISFQKFAQQQPFSASMVPTSPTFNLVKPAPQQMSPNTAAFQEIGQSSEFKFENSQVKPWEGERIHDVGMEDLELTLGNGKARG
partner: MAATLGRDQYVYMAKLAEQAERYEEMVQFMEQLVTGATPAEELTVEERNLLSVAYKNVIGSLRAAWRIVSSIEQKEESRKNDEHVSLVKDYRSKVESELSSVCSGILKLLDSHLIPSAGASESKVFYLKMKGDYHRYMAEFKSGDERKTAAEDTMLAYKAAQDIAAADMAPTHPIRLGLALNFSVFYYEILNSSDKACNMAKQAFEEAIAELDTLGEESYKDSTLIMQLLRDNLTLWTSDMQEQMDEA

Variants of: B1
Conditions: with 14336_arath GRF6, P48349

Row | effect of a mutation on the interaction | Variant
1 | decreasing interaction | MTSDGATSTSAAAAAAAAAAARRKPSWRERENNRRRERRRRAVAAKIYTGLRAQGDYNLPKHCDNNEVLKALCVEAGWVVEEDGTTYRKGCKPLPGEIAGTSSRVTPYSSQNQSPLSSAFQSPIPSYQVSPSSSSFPSPSRGEPNNNMSSTFFPFLRNGGIPSSLPSLRISNACPVTPPVSSPTSKNPKPLPNWESIAKQSMAIAKQSMASFNYPFYAVSAPASPTHRHQFHTPATIPECDESDSSTVDSGHWISFQKFAQQQPFSASMVPTSPTFNLVKPAPQQMSPNTAAFQEIGQSSEFKFENSQVKPWEGERIHDVGMEDLELTLGNGKARG [S173A]
